This is an account of results in publication PMC8152469.

The target of the assay is MobK-6His (Klebsiella pneumoniae (plasmid pIGRK)). Nature of the assay: cross-linking; about 400 ng MobK-6His incubated with increasing glutaraldehyde (0%, 0.001%, 0.0025%, 0.005%, 0.025%, 0.05%); SDS-PAGE and Western blot with anti-6His antibody; monomer to dimer. A general note: Immunoblotting shows a protein as a band on a membrane.

The substance MobK-6His (enzyme) showed a stoichiometry N of 2.

For orientation: stoichiometry N means a count of units in the complex or per binding partner.
